Test results as given in patent publication US20060241067A1, “Methods For inhibiting angiogenesis, cell migration, cell adhesion, and cell survival” (priority 2002, published 2006).

Test system: Human umbilical vein endothelial cells (HUVEC)
Experiment: Endothelial cell migration assay (transwell) on ECM substrates
Format: cell-based
Conditions: inventors' data, no details given
Protocol: Human umbilical vein endothelial cells (HUVEC) were grown in Endothelial Growth Medium (containing 2% fetal bovine serum, bFGF and VEGF) (Clonetics, San Diego, Calif.). To render HUVECs quiescent for Rac and/or Rho assays, monolayers of endothelial cells were incubated for 18 hrs in Endothelial Basal Medium supplemented with 0.1% serum (Clonetics). Cell migration and adhesion assays on ECM substrates were performed as previously described in Kim et al. (S. Kim et al., Amer. J. Biol. Chem., 275:33920-33928 (2000); and S. Kim et al., Amer. J. Path., 156:1345-1362 (2000)).
Migration assays were performed essentially as described (Kim, et. al., 2000). […] HUVECS (25,000) were added to the upper chamber of inserts in migration buffer (Hepes buffered M199 medium containing 1% BSA, 2 mM MgCl2, 2 mM CaCl2 and 0.2 mM MnCl2) containing 25 μg/ml of various antibodies. In some experiments, 250 μM dibutyryl cAMP was placed in the upper and lower chambers of the transwell. Cells were allowed to migrate from the upper to the lower chamber for four hours at 37° C. The number of cells which had migrated were counted in three representative high power (200×) fields per insert. The data are presented as number of cells migrating+/−standard error of the mean. […] In this case, migrated transfected cells were identified by fluorescent microscopy and counted.

B1: Csk: enzyme that phosphorylates Src on Tyr 527 and inhibits its activity (protein, UniProt P41240 2-450, looked up)
Tyrosine-protein kinase CSK: SAIQAAWPSGTECIAKYNFHGTAEQDLPFCKGDVLTIVAVTKDPNWYKAKNKVGREGIIPANYVQKREGVKAGTKLSLMPWFHGKITREQAERLLYPPETGLFLVRESTNYPGDYTLCVSCDGKVEHYRIMYHASKLSIDEEVYFENLMQLVEHYTSDADGLCTRLIKPKVMEGTVAAQDEFYRSGWALNMKELKLLQTIGKGEFGDVMLGDYRGNKVAVKCIKNDATAQAFLAEASVMTQLRHSNLVQLLGVIVEEKGGLYIVTEYMAKGSLVDYLRSRGRSVLGGDCLLKFSLDVCEAMEYLEGNNFVHRDLAARNVLVSEDNVAKVSDFGLTKEASSTQDTGKLPVKWTAPEALREKKFSTKSDVWSFGILLWEIYSFGRVPYPRIPLKDVVPRVEKGYKMDAPDGCPPAVYEVMKNCWHLDAAMRPSFLQLREQLEHIKTHELHL
cell migration: causes inhibition of cell migration
